# Reference: paper PMC2115223
# Target: diphtheria toxin receptor (14.5-kD protein of Vero cells) (African green monkey (endogenous in Vero))
# Test: radioligand binding
# Sequence of diphtheria toxin receptor (14.5-kD protein of Vero cells) (African green monkey (endogenous in Vero)) (Q09118 20-208 limits assumed): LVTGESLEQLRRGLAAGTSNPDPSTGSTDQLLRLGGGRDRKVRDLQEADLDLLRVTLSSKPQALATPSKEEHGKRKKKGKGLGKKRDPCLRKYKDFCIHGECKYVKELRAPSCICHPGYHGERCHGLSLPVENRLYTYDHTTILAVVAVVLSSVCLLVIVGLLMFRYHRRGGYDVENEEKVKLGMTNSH
substance,measurement,value
CRM228 (natural protein),fold less potent than nicked CRM197 in competition,200 times
